Patent publication US20090300780A1 (AbbVie / Abbott, published 2009)

Molecular target: T1, murine NGF purified from submandibular glands (murine, UniProt P01139 122-239, limits assumed)
T1 construct: Native protein purified from tissue; also called NGF neurotrophin
Test: ELISA, murine NGF coated at 10 ug/ml, COS supernatants with IgG1, detection by anti-human Cgamma, OD450
Protocol: For immobilization on plastic, 96 well Maxi sorb plates were incubated at 4° C. overnight with a solution containing the respective ligands of the two antibodies (the purified recombinant immunoadhesin TrkA Camel and the murine NGF purified from submandibular glands) at a concentration of 10 μg/ml in 0.1M pH 9.6 sodium carbonate buffer.
After one hour of blocking with PBS containing 3% milk (MPBS) at ambient temperature, concentrated supernatants were incubated with serial dilutions (1:2, 1.20; 1:200) and in parallel also with the supernatant of non transfected COS cells (negative control).

T1 sequence (P01139 122-239 limits assumed): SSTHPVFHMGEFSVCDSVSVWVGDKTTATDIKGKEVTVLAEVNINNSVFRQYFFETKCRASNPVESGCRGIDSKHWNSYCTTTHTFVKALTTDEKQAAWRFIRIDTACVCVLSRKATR

B1: alpha D11 humanized antibody (Hum alpha D11), IgG1 form (antibody, V domains shown)
VH: EVQLVESGGGLVQPGGSLRLSCAASGFSLTNNNVNWVRQAPGKGLEWVGGVWAGGATDYNSALKSRFTISRDNSKNTAYLQMNSLRAEDTAVYYCARDGGYSSSTLYAMDAWGQGTLVTVSS
VL: DIQMTQSPSSLSASVGDRVTITCRASEDIYNALAWYQQKPGKAPKLLIYNTDTLHTGVPSRFSGSGSGTDYTLTISSLQPEDFATYFCQHYFHYPRTFGQGTKVEIK
notes: also called Hum αD11; Hum alpha D11 VH / Hum alpha D11Vk
B1: binds.
